From PMC3386213 (Molecular Biology of the Cell, 2012)

Target: the molecule itself
Test: cross-linking

B1: HA-tagged KCTD6 N-terminal BTB domain (domain or fragment)
chain: MDNGDWGYMMTDPVTLNVGGHLYTTSLTTLTRYPDSMLGAMFGGDFPTARDPQGNYFIDRDGPLFRYVLNFLRTSELTLPLDFKEFDLLRKEADFYQIEPLIQCLNDPKPLYPMDTFEEVVELSSTRKLSKYSNPVAVIITQLTITT
  stoichiometry N: 2
